The record followed here is the supplement of paper PMC9112550, “Optimization of the antimicrobial peptide Bac7 by deep mutational scanning” (BMC Biology, 2022).

In the series the test system is Escherichia coli TOP10. Put plainly: shrunken log2 fold change of peptide-encoding DNA abundance (4.5 h post-induction vs induction); higher = less antimicrobial activity (less host growth inhibition). As to conditions: time post-induction: 4.5 h; library: site-saturation at positions 5, 18, 19, 20.
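Note: peptides expressed intracellularly from a pBAD plasmid library in pooled LB shake-flask culture, induced with 0.3% L-arabinose, DNA abundance read by NGS, three biological replicates, DESeq2 with apeglm shrinkage.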

Turning to RRIRWRPPRLPRPRPRPCPEPRP, the “shrunken log2 fold change” value came out at 0.0311.

For RRIRTRPPRLPRPRPRPLIGPRP, the “shrunken log2 fold change” value is -0.413.

Turning to RRIRPRPPRLPRPRPRPWHDPRP, the “shrunken log2 fold change” value is -0.112.

Turning to RRIRDRPPRLPRPRPRPKCHPRP, the “shrunken log2 fold change” value stood at 0.028.

Turning to RRIRKRPPRLPRPRPRPEMFPRP, the “shrunken log2 fold change” value worked out at 0.0732.

Take RRIRGRPPRLPRPRPRPEGYPRP: the “shrunken log2 fold change” value is 0.118.

For RRIRLRPPRLPRPRPRPCKFPRP, the “shrunken log2 fold change” value was -0.463.

On to RRIRVRPPRLPRPRPRPNSQPRP, for which the “shrunken log2 fold change” value was -0.131.

On to RRIRVRPPRLPRPRPRPCWTPRP, for which the “shrunken log2 fold change” value was -0.665.

On to RRIRPRPPRLPRPRPRPRSCPRP, for which the “shrunken log2 fold change” value was found to be 0.395.

For the sequence RRIRIRPPRLPRPRPRPTKRPRP, the “shrunken log2 fold change” value is -0.0508.

For the sequence RRIRLRPPRLPRPRPRPYHDPRP, the “shrunken log2 fold change” value is -0.131.

On to RRIRCRPPRLPRPRPRPPLTPRP, for which the “shrunken log2 fold change” value is 0.578.

As to RRIRRRPPRLPRPRPRPKRVPRP, the “shrunken log2 fold change” value was 0.298.

Consider RRIRQRPPRLPRPRPRPDGAPRP, for which the “shrunken log2 fold change” value was 0.0271.

In the case of RRIRERPPRLPRPRPRPCMWPRP, the “shrunken log2 fold change” value was -0.233.

Consider RRIRGRPPRLPRPRPRPGAHPRP, for which the “shrunken log2 fold change” value stood at 0.755.

On to RRIRTRPPRLPRPRPRPLVKPRP, for which the “shrunken log2 fold change” value is -0.0793.

Regarding RRIRVRPPRLPRPRPRPFAHPRP, the “shrunken log2 fold change” value was -0.176.

With RRIRTRPPRLPRPRPRPCVWPRP, the “shrunken log2 fold change” value was -0.000289.

Take RRIRLRPPRLPRPRPRPQYPPRP: the “shrunken log2 fold change” value is -0.765.

Turning to RRIRQRPPRLPRPRPRPRWLPRP, the “shrunken log2 fold change” value worked out at 0.453.

As to RRIRMRPPRLPRPRPRPVGGPRP, the “shrunken log2 fold change” value came out at 0.961.

On to RRIRGRPPRLPRPRPRPCDCPRP, for which the “shrunken log2 fold change” value was -0.0193.

Take RRIRMRPPRLPRPRPRPIVDPRP: the “shrunken log2 fold change” value was 0.35.

As for RRIRYRPPRLPRPRPRPRKFPRP, the “shrunken log2 fold change” value was -1.72.

Consider RRIRKRPPRLPRPRPRPYQAPRP, for which the “shrunken log2 fold change” value is 0.134.

Turning to RRIRWRPPRLPRPRPRPVIYPRP, the “shrunken log2 fold change” value was -0.279.

For the sequence RRIRWRPPRLPRPRPRPYVNPRP, the “shrunken log2 fold change” value was -0.355.

On to RRIRKRPPRLPRPRPRPGRNPRP, for which the “shrunken log2 fold change” value is -0.105.

On to RRIRLRPPRLPRPRPRPYYYPRP, for which the “shrunken log2 fold change” value was -1.03.

Consider RRIRMRPPRLPRPRPRPFMYPRP, for which the “shrunken log2 fold change” value was -0.219.

For RRIRVRPPRLPRPRPRPWCAPRP, the “shrunken log2 fold change” value was -0.0313.

In the case of RRIRHRPPRLPRPRPRPWVVPRP, the “shrunken log2 fold change” value is -0.48.

Turning to RRIRNRPPRLPRPRPRPHHAPRP, the “shrunken log2 fold change” value was -0.0601.

In the case of RRIRWRPPRLPRPRPRPMKIPRP, the “shrunken log2 fold change” value is -0.0129.

In the case of RRIRWRPPRLPRPRPRPPNDPRP, the “shrunken log2 fold change” value was 0.0849.

Consider RRIRERPPRLPRPRPRPVCLPRP, for which the “shrunken log2 fold change” value is -0.0994.

On to RRIRKRPPRLPRPRPRPIEMPRP, for which the “shrunken log2 fold change” value was -0.202.

Consider RRIRRRPPRLPRPRPRPGAHPRP, for which the “shrunken log2 fold change” value is 0.45.

For the sequence RRIRDRPPRLPRPRPRPFTMPRP, the “shrunken log2 fold change” value is -0.0235.

Turning to RRIRERPPRLPRPRPRPWTSPRP, the “shrunken log2 fold change” value was -0.028.

Consider RRIRHRPPRLPRPRPRPTLWPRP, for which the “shrunken log2 fold change” value was determined as 0.246.

RRIRIRPPRLPRPRPRPNNRPRP: the “shrunken log2 fold change” value was -0.557.

With RRIRWRPPRLPRPRPRPSQGPRP, the “shrunken log2 fold change” value stood at 0.27.

As for RRIRVRPPRLPRPRPRPVLWPRP, the “shrunken log2 fold change” value amounted to 0.453.

As to RRIRARPPRLPRPRPRPLYVPRP, the “shrunken log2 fold change” value is -0.0921.

With RRIRARPPRLPRPRPRPPMDPRP, the “shrunken log2 fold change” value came to 0.515.

As for RRIRDRPPRLPRPRPRPKFRPRP, the “shrunken log2 fold change” value was found to be 0.152.

With RRIRHRPPRLPRPRPRPFDKPRP, the “shrunken log2 fold change” value was -0.118.

On to RRIRHRPPRLPRPRPRPQYVPRP, for which the “shrunken log2 fold change” value is -0.213.

As to RRIRMRPPRLPRPRPRPCAVPRP, the “shrunken log2 fold change” value was found to be 0.296.

In the case of RRIRIRPPRLPRPRPRPHINPRP, the “shrunken log2 fold change” value is -0.853.

Regarding RRIRIRPPRLPRPRPRPLFEPRP, the “shrunken log2 fold change” value was -0.251.

On to RRIRRRPPRLPRPRPRPGRNPRP, for which the “shrunken log2 fold change” value is -0.000492.

As for RRIRYRPPRLPRPRPRPPIMPRP, the “shrunken log2 fold change” value was -1.14.

Regarding RRIRLRPPRLPRPRPRPNKLPRP, the “shrunken log2 fold change” value is -0.307.

With RRIRYRPPRLPRPRPRPVEDPRP, the “shrunken log2 fold change” value is -0.0671.

In the case of RRIRWRPPRLPRPRPRPVNHPRP, the “shrunken log2 fold change” value was -0.191.

Regarding RRIRTRPPRLPRPRPRPNKQPRP, the “shrunken log2 fold change” value is -0.207.

Take RRIRIRPPRLPRPRPRPCPSPRP: the “shrunken log2 fold change” value was -0.186.

In the case of RRIRDRPPRLPRPRPRPGKMPRP, the “shrunken log2 fold change” value worked out at 0.0346.

Take RRIRDRPPRLPRPRPRPEMLPRP: the “shrunken log2 fold change” value was found to be 1.4.

As to RRIRRRPPRLPRPRPRPPGYPRP, the “shrunken log2 fold change” value was found to be 1.22.

RRIRLRPPRLPRPRPRPDFLPRP: the “shrunken log2 fold change” value is -0.181.

On to RRIRDRPPRLPRPRPRPLPGPRP, for which the “shrunken log2 fold change” value was 0.312.

Take RRIRMRPPRLPRPRPRPEINPRP: the “shrunken log2 fold change” value was 2.85.

For RRIRFRPPRLPRPRPRPWMNPRP, the “shrunken log2 fold change” value was -0.708.

Regarding RRIRMRPPRLPRPRPRPYKEPRP, the “shrunken log2 fold change” value was found to be 0.0136.

In the case of RRIRYRPPRLPRPRPRPRKKPRP, the “shrunken log2 fold change” value is -0.0257.

Take RRIRNRPPRLPRPRPRPFYVPRP: the “shrunken log2 fold change” value is -0.181.

Regarding RRIRMRPPRLPRPRPRPWMFPRP, the “shrunken log2 fold change” value stood at 0.00324.

RRIRVRPPRLPRPRPRPNLQPRP: the “shrunken log2 fold change” value is 0.0671.

Consider RRIRFRPPRLPRPRPRPWDCPRP, for which the “shrunken log2 fold change” value is 0.00208.

Regarding RRIRRRPPRLPRPRPRPQKHPRP, the “shrunken log2 fold change” value worked out at 0.0365.

For RRIRIRPPRLPRPRPRPHYKPRP, the “shrunken log2 fold change” value was -0.756.

As for RRIRNRPPRLPRPRPRPACKPRP, the “shrunken log2 fold change” value was 0.169.

Turning to RRIRERPPRLPRPRPRPSHEPRP, the “shrunken log2 fold change” value is -0.0595.

In the case of RRIRFRPPRLPRPRPRPHQNPRP, the “shrunken log2 fold change” value is -0.182.

Take RRIRYRPPRLPRPRPRPAWAPRP: the “shrunken log2 fold change” value came to 0.253.

With RRIRTRPPRLPRPRPRPMWGPRP, the “shrunken log2 fold change” value is -0.00569.

With RRIRIRPPRLPRPRPRPYWMPRP, the “shrunken log2 fold change” value is -0.379.

Take RRIRCRPPRLPRPRPRPTINPRP: the “shrunken log2 fold change” value is -0.783.

For the sequence RRIRERPPRLPRPRPRPWWNPRP, the “shrunken log2 fold change” value was -0.0135.

On to RRIRMRPPRLPRPRPRPHDYPRP, for which the “shrunken log2 fold change” value was found to be 1.54.

For RRIRFRPPRLPRPRPRPYEFPRP, the “shrunken log2 fold change” value was -0.245.

For the sequence RRIRCRPPRLPRPRPRPRDNPRP, the “shrunken log2 fold change” value came to 2.6.

For the sequence RRIRMRPPRLPRPRPRPSYQPRP, the “shrunken log2 fold change” value was -0.115.

Take RRIRWRPPRLPRPRPRPLEWPRP: the “shrunken log2 fold change” value came out at 0.0624.

For the sequence RRIRARPPRLPRPRPRPNVQPRP, the “shrunken log2 fold change” value was determined as 0.109.

Take RRIRRRPPRLPRPRPRPRITPRP: the “shrunken log2 fold change” value worked out at 0.186.

As to RRIRSRPPRLPRPRPRPTAIPRP, the “shrunken log2 fold change” value was -0.0172.

RRIRYRPPRLPRPRPRPQYKPRP: the “shrunken log2 fold change” value is -0.179.

Regarding RRIRGRPPRLPRPRPRPTCRPRP, the “shrunken log2 fold change” value amounted to 0.825.

With RRIRGRPPRLPRPRPRPPHDPRP, the “shrunken log2 fold change” value was found to be 1.27.

Turning to RRIRSRPPRLPRPRPRPYFKPRP, the “shrunken log2 fold change” value was -0.857.

RRIRGRPPRLPRPRPRPVDPPRP: the “shrunken log2 fold change” value was found to be 0.107.

RRIRMRPPRLPRPRPRPDHWPRP: the “shrunken log2 fold change” value was determined as 0.617.

Consider RRIRQRPPRLPRPRPRPTECPRP, for which the “shrunken log2 fold change” value was 0.0119.

Regarding RRIRYRPPRLPRPRPRPPHNPRP, the “shrunken log2 fold change” value is -0.275.

With RRIRTRPPRLPRPRPRPSEHPRP, the “shrunken log2 fold change” value is -0.383.

For RRIRQRPPRLPRPRPRPDWKPRP, the “shrunken log2 fold change” value worked out at 0.0112.

As to RRIRDRPPRLPRPRPRPYMIPRP, the “shrunken log2 fold change” value is -0.587.

On to RRIRARPPRLPRPRPRPFCHPRP, for which the “shrunken log2 fold change” value is -0.083.

Regarding RRIRVRPPRLPRPRPRPSANPRP, the “shrunken log2 fold change” value turned out to be 0.122.

Consider RRIRYRPPRLPRPRPRPYFCPRP, for which the “shrunken log2 fold change” value is -1.09.

For the sequence RRIRIRPPRLPRPRPRPSGVPRP, the “shrunken log2 fold change” value is -0.666.

As to RRIRHRPPRLPRPRPRPIHKPRP, the “shrunken log2 fold change” value is -1.25.

As to RRIRFRPPRLPRPRPRPVAQPRP, the “shrunken log2 fold change” value was determined as 0.0899.

Regarding RRIRWRPPRLPRPRPRPETLPRP, the “shrunken log2 fold change” value worked out at 0.0224.

RRIRLRPPRLPRPRPRPRYPPRP: the “shrunken log2 fold change” value is 0.318.

In the case of RRIRIRPPRLPRPRPRPSFRPRP, the “shrunken log2 fold change” value was -0.671.

Regarding RRIRWRPPRLPRPRPRPEEDPRP, the “shrunken log2 fold change” value was found to be 0.00839.

With RRIRWRPPRLPRPRPRPMMGPRP, the “shrunken log2 fold change” value turned out to be 0.0383.

On to RRIRKRPPRLPRPRPRPWWQPRP, for which the “shrunken log2 fold change” value turned out to be 0.0795.

As for RRIRARPPRLPRPRPRPATCPRP, the “shrunken log2 fold change” value was 0.03.

For the sequence RRIRLRPPRLPRPRPRPQALPRP, the “shrunken log2 fold change” value is -0.042.

RRIRFRPPRLPRPRPRPITTPRP: the “shrunken log2 fold change” value is -0.198.

As to RRIRERPPRLPRPRPRPPDHPRP, the “shrunken log2 fold change” value was -0.0455.

On to RRIRLRPPRLPRPRPRPMDQPRP, for which the “shrunken log2 fold change” value is -0.0503.

Take RRIRARPPRLPRPRPRPTGPPRP: the “shrunken log2 fold change” value stood at 0.284.

Regarding RRIRFRPPRLPRPRPRPDHFPRP, the “shrunken log2 fold change” value was -0.331.

Turning to RRIRFRPPRLPRPRPRPCYAPRP, the “shrunken log2 fold change” value was -0.618.

RRIRCRPPRLPRPRPRPWYYPRP: the “shrunken log2 fold change” value is -0.698.

For RRIRMRPPRLPRPRPRPCYIPRP, the “shrunken log2 fold change” value is -0.133.
